Here are results for 20 molecules from patent publication US20240117334A1, “FACTOR B PROTEASES” (Vertex Pharmaceuticals Incorporated, priority 2021, published 2024).

Numbering of substitutions follows the chain as printed. Names may count otherwise. Read-outs that look alike come from different tables or passages of the source.

Broadly, the EC50 is the midpoint of the concentration-response curve.

The subject of data set [1] is EGVD/AE-ACT (SEQ ID NO: 53). As to the kind of experiment: Second order rate constant k*app with EGVD/AE-ACT serpin bait. The format is biochemical. As for the experimental part:
Selected chymase-based engineered proteases were tested to measure the activity of these proteases, by using an active site titration method based on reaction with the inhibitory serpin bait, followed by HPLC analysis to quantitate the active fraction. All references in this Example, including Table 9, to engineered proteases are depicted in chymotrypsin numbering. See Table 6 for the chymotrypsin numbering key for the modified protease domain of chymase. The HPLC analysis detects a shift in the measured peak when the serpin bait is present, an indication that the protease is binding the bait and therefore active. Briefly, a working concentration of 24 μM of serpin bait was prepared from stock solution, with 50 μM of low molecular weight heparin for antithrombin (AT)-based baits. Protease solutions were prepared by using 30 μL of a 5 μM working solution. Reaction mixtures were incubated for 2 hours at 37° C., and each reaction mixture (protease alone or protease with bait) was analyzed by HPLC using standard protocols. All protease alone samples were run first, then followed by the protease with serpin bait samples. A summary of the results for the proteases tested is summarized in Table 9 below. kcat/Km was measured using EGVD/AE-QF (SEQ ID NO: 52) and second order rate constant K*app was measured using EGVD/AE-ACT (SEQ ID NO: 53).

The target in data set [2] is Human Factor B (Homo sapiens, UniProt P00751). As to the kind of experiment: Human Factor B cleavage EC50 in 80% human plasma (Table 10A). The format is biochemical. As for the experimental part: Cleavage of Factor B by various engineered proteases was evaluated. Engineered chymase-, MTSP-1-, and uPA-based proteases were tested. All references in this Example, including Tables 10A, 10B, 11A, and 11B, to engineered proteases are depicted in chymotrypsin numbering. The chymotrypsin numbering key for the modified protease domains of engineered proteases are found in Tables 2, 4, and 6 for uPA, MTSP-1, and chymase, respectively. These experiments were also performed to evaluate the stability of non-naturally occurring chymases in various media, including cynomolgus monkey vitreous humor, human plasma, and phosphate buffered saline (PBS). Briefly, Factor B was diluted into an assay buffer and incubated at 37° C. with naturally occurring (wild type) and non-naturally occurring (engineered) proteases in vitreous humor, plasma, or PBS, and the reactions were quenched with HCl at various time points. The time points tested for chymase include T=0 which used 6 hours pre-incubation, T=2 hours which used 4 hours pre-incubation, T=4 hours which used 2 hours pre-incubation, and T=6 hours which used 0 hours pre-incubation. Assaying of the sample was performed with ELISA, or alpha screen for human C3 cleavage, using standard protocols.
Human Factor B, sequence (P00751 26-764): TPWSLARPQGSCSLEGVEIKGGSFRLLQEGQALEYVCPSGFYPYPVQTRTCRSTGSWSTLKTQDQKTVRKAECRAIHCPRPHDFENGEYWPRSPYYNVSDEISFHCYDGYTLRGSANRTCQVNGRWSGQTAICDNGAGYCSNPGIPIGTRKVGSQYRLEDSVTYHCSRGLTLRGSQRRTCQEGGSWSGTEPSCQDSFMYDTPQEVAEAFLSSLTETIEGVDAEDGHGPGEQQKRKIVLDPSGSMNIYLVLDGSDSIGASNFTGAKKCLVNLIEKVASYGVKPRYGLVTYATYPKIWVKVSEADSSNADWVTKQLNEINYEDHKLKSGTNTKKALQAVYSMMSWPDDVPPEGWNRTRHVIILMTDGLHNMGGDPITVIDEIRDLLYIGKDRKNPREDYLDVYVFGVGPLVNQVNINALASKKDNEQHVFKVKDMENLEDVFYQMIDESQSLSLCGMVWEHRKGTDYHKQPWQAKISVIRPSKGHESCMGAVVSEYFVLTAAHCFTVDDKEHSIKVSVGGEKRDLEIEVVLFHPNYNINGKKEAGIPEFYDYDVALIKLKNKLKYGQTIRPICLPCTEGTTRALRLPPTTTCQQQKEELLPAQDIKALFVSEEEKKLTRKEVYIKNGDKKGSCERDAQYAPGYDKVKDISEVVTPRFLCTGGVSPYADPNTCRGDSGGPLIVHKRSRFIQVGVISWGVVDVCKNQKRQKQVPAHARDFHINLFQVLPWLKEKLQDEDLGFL
A summary of the results is presented in Tables 10A-10B below, showing the various tested proteases, the concentration of the protease used in nM and the EC50 of human Factor B cleavage. Table 10 presents human Factor B cleavage by various non-naturally occurring chymase-based engineered proteases, tested in 80% human plasma, compared against a chymase comprising the mutation string […]. Blank cells indicate that a test was not performed for a particular protease mutation string.

In data set [3] the test system is serpins. As to the kind of experiment: Serpin inhibition tests of chymase-based engineered proteases. The format is biochemical. The protocol:
Inhibition tests were carried out using chymase-based engineered proteases. Various serpins, which are capable of inhibiting protease activity, were used to test whether these could be used for adequate inhibition of the tested chymase-based engineered proteases, to enable selection of an engineered protease resistant to inhibition in plasma. All references in this Example to engineered proteases are depicted in chymotrypsin numbering. The chymotrypsin numbering key for the modified protease domains of engineered proteases are found in Tables 2, 4, and 6 for uPA, MTSP-1, and chymase, respectively.

Data set [4] in a line: Second order rate constant (k*) for inhibition by plasma, extrapolation of half-life in 100% plasma. The format is in vitro ADME. The protocol: Briefly, a baseline chymase having the modifications C22S/A226R was used. The concentration of the baseline chymase and the tested chymase-based engineered proteases, listed in Table 11B below, were used at 50 nM, and another tested chymase C22S/L99R/F173Y/K192R/S218L/A226R was used at 25 nM. For the baseline chymase, a time course of protease activity in the presence of plasma was measured using 4.2 uM CPQ2-ITLLSA-K(5FAM)-K-PEG8-K(biotin)-NH2 (SEQ ID NO: 17)/21 uM Neutravidin at 37° C.

The nature of data set [5]: Half-life in 50% human plasma of chymase-based engineered proteases. The format is in vitro ADME. The note with it: EGVD′AE substrate. The protocol: Table 10B presents human Factor B cleavage by various engineered chymase-, MTSP-1-, or uPA-based proteases, tested in mouse or human plasma. For ELISA analysis of Factor B cleavage, briefly, anti-Ba was used, and Bb was detected with anti-Bb. A dynamic range of 25-1600 pM was used. Half-life in 50% human plasma was also calculated for various chymase-based engineered proteases.

Data set [6] deals with Factor B depleted human serum spiked with human Factor B, rabbit or chicken RBCs. As to the kind of experiment: Factor B add-back hemolysis assay. The format is biochemical. The note with it: MTSP-1 scaffold, read-out: Hu fB Add-Back EC50. As for the experimental part:
Hemolysis assays were performed to evaluate the hemolytic activity of various lots of Factor B, a lot obtained from CompTech as compared to a lot expressed in-house. Briefly, Factor B depleted human serum was used, and plasma purified or recombinant human Factor B was used for the add-back. Rabbit red blood cells (RBCs) or chicken RBCs were washed in GVB/Mg/EGTA, and the depleted serum was spiked with Factor B. The RBC lysis was then monitored with CVF/FD/human Factor B convertase. These were analyzed to create standard curves from which the Factor B lots were compared. FIGS. 5-6 depict a bar graph of controls used for the hemolysis assay and the standard curves measured from the tested engineered proteases from the Factor B add-back hemolysis assay, respectively. […] This engineered protease was tested at two concentrations (samples 1 and 2). All references in this Example to engineered proteases are depicted in chymotrypsin numbering. The chymotrypsin numbering key for the modified protease domains of engineered proteases are found in Tables 2, 4, and 6 for uPA, MTSP-1, and chymase, respectively.

The mark [7] stands for this setting: chymase-based engineered proteases, no plasma stated, read-out: fB Cleavage EC50.
The mark [8] stands for this setting: read-out: fB Cleavage, 80% plasma EC50, chymase-based, 80% human plasma.
Setting [9] is: Plasma Inhibitor: plasma antichymotrypsin (plasma ACT).

B1: C22S/A226R: chymase-based engineered protease, baseline chymase (protein, listed as Homo sapiens)
chain: IIGGTESKPHSRPYMAYLEIVTSNGPSKFCGGFLIRRNFVLTAAHCAGRSITVTLGAHNITEEEDTWQKLEVIKQFRHPKYNTSTLHHDIMLLKLKEKASLTLAVGTLPFPSQFNFVPPGRMCRVAGWGRTGVLKPGSDTLQEVKLRLMDPQACSHFRDFDHNLQLCVGNPRKTKSAFKGDSGGPLLCAGVAQGIVSYGRSDAKPPRVFTRISHYRPWINQILQAN
As to B1, in data set [1], the “k*app EGVD/AE-ACT (SEQ ID NO: 53)” value worked out at 77. The “fB Cleavage, 80% plasma EC50 (nM)” value in data set [2] (chymase-based, 80% human plasma) is “none”. Besides, the figures for the kapp in data set [3] (Plasma Inhibitor: ACT) and in data set [3] (Plasma Inhibitor: alpha-2-marcroglobin (A2M)) were 1045 M⁻¹ s⁻¹ and 812 M⁻¹ s⁻¹, respectively. Also, the “calculated t1/2 (in 100% plasma)” value in data set [4] (extrapolated from k*) was 1.58 min. Besides, the “k*” value in data set [4] (inhibition by plasma, 37° C.) is 7.32E−5 %^−1s^−1.

B2: F41V/L99H/G151V/F173Y/Y215K/R217G/A226R: chymase-based engineered protease (protein, listed as Homo sapiens)
chain: B1 chain with S7C, F29V, L86H, G137V, F157Y, Y198K, R200G
As for B2, in data set [1], the “k*app EGVD/AE-ACT (SEQ ID NO: 53)” value worked out at 649.

B3: C22S/D175N/A226R (protein, listed as Homo sapiens)
chain: B1 chain with D159N
In the case of B3, the EC50 turned out to be 0.564 µM in data set [2] (setting [7]) and 7.77 µM in data set [2] (setting [8]). Also, the “t1/2 in 50% human plasma (min) (EGVD′AE)(SEQ ID NO: 13)” value in data set [5] stood at 6.2 min.

B4: C22S/A220S/A226R (protein, listed as Homo sapiens)
chain: B1 chain with A203S
With B4, the EC50 in data set [2] (setting [7]) was 5.56 µM.

B5: C22S/V138L/S189T/A190G/A226R (protein, listed as Homo sapiens)
chain: B1 chain with V125L, S176T, A177G
As to B5, the EC50 in data set [2] (setting [7]) was 4.16 µM.

B6: C22S/V138S/S189T/A226R/F228M (protein, listed as Homo sapiens)
chain: B1 chain with V125S, S176T, F209M
As for B6, the EC50 in data set [2] (setting [7]) amounted to 2.98 µM.

B7: C22S/V138T/A190S/V213A/A226R (protein, listed as Homo sapiens)
chain: B1 chain with V125T, A177S, V196A
As for B7, the EC50 in data set [2] (setting [7]) stood at 6.71 µM.

B8: C22S: chymase-based engineered protease, chymotrypsin numbering (protein, listed as Homo sapiens)
chain: B1 chain with R207A
As to B8, the “k*app EGVD/AE-ACT (SEQ ID NO: 53)” value in data set [1] came to 30.2. Moreover, the kapp in data set [3] (setting [9]) was determined as 31166 M⁻¹ s⁻¹.

B9: C22S/V138L/A226R (protein, listed as Homo sapiens)
chain: B1 chain with V125L
Turning to B9, the EC50 in data set [2] (setting [7]) was 3.48 µM.

B10: C22S/A190S/A226R (protein, listed as Homo sapiens)
chain: B1 chain with A177S
In data set [3] (setting [9]), B10 had a kapp of 1599 M⁻¹ s⁻¹. The “t1/2 in 50% human plasma (min) (EGVD′AE)(SEQ ID NO: 13)” value in data set [5] is reported as 4.2 min.

B11: C22S/V138A/G145D/S189T/A190S/A226R (protein, listed as Homo sapiens)
chain: B1 chain with V125A, G132D, S176T, A177S
Regarding B11, the EC50 in data set [2] (setting [7]) stood at 3.81 µM.

B12: C22S/S218I/A226R (protein, listed as Homo sapiens)
chain: B1 chain with S201I
Take B12: in data set [2] (setting [7]), the EC50 came out at 0.83 µM. Besides, the “t1/2 in 50% human plasma (min) (EGVD′AE)(SEQ ID NO: 13)” value in data set [5] came out at 7.8 min.

B13: C22S/F173L/Y215H/A226R (protein, listed as Homo sapiens)
chain: B1 chain with F157L, Y198H
Take B13: in data set [2] (setting [7]), the EC50 was determined as 5.99 µM.

B14: C22S/V138A/S189T/A226R/F228M (protein, listed as Homo sapiens)
chain: B1 chain with V125A, S176T, F209M
For the molecule B14, the EC50 in data set [2] (setting [7]) was 1.77 µM.

B15: C22S/A226R/F228A (protein, listed as Homo sapiens)
chain: B1 chain with F209A
Turning to B15, the 50% effective concentration (EC50) in data set [2] (setting [7]) turned out to be 5.07 µM.

B16: C22S/F173Y/A226R (protein, listed as Homo sapiens)
chain: B1 chain with F157Y
Turning to B16, the EC50 turned out to be 0.65 µM in data set [2] (setting [7]) and 21 µM in data set [2] (setting [8]). Also, in data set [5], the “t1/2 in 50% human plasma (min) (EGVD′AE)(SEQ ID NO: 13)” value turned out to be 5.9 min.

B17: C22S/V138A/A226R (protein, listed as Homo sapiens)
chain: B1 chain with V125A
On to B17, for which, in data set [2] (setting [7]), the EC50 was determined as 2.94 µM.

B18: C22S/V138I/L160V/S189T/A226R (protein, listed as Homo sapiens)
chain: B1 chain with V125I, L146V, S176T
As for B18, in data set [2] (setting [7]), the EC50 was determined as 7.13 µM.

B19: C22S/V138A/S189T/A226R (protein, listed as Homo sapiens)
chain: B1 chain with V125A, S176T
For B19, the EC50 in data set [2] (setting [7]) was found to be 4.42 µM.

B20: MTSP-1 (protein, listed as Homo sapiens)
chain: VVGGTDADEGEWPWQVSLHALGQGHICGASLISPNWLVSAAHCYIDDRGFRYSDPTQWTAFLGLHDQSQRSAPGVQERRLKRIISHPFFNDFTFDYDIALLELEKPAEYSSMVRPICLPDASHVFPAGKAIWVTGWGHTQYGGTGALILQKGEIRVINQTTCENLLPQQITPRMMCVGFLSGGVDSCQGDSGGPLSSVEADGRIFQAGVVSWGDGCAQRNKPGVYTRLPLFRDWIKENTGV
Regarding B20, the values for the EC50 in data set [6] ([Protease]high 400 nM) and in data set [6] ([Protease]high 4000 nM) were 0.0322 µM and 0.0373 µM, respectively.
